Measurements reported in paper doi:10.1101/871707 (bioRxiv, 2019).

Target: the molecule itself
Experiment: cryo-EM structure

B1: human SEMA6A soluble recombinant extracellular domain (receptor)
chain: GFPEDSEPISISHGNYTKQYPVFVGHKPGRNTTQRHRLDIQMIMIMNGTLYIAARDHIYTVDIDTSHTEEIYCSKKLTWKSRQADVDTCRMKGKHKDECHNFIKVLLKKNDDALFVCGTNAFNPSCRNYKMDTLEPFGDEFSGMARCPYDAKHANVALFADGKLYSATVTDFLAIDAVIYRSLGESPTLRTVKHDSKWLKEPYFVQAVDYGDYIYFFFREIAVEYNTMGKVVFPRVAQVCKNDMGGSQRVLEKQWTSFLKARLNCSVPGDSHFYFNILQAVTDVIRINGRDVVLATFSTPYNSIPGSAVCAYDMLDIASVFTGRFKEQKSPDSTWTPVPDERVPKPRPGCCAGSSSLERYATSNEFPDDTLNFIKTHPLMDEAVPSIFNRPWFLRTMVRYRLTKIAVDTAAGPYQNHTVVFLGSEKGIILKFLARIGNSGFLNDSLFLEEMSVYNSEKCSYDGVEDKRIMGMQLDRASSSLYVAFSTCVIKVPLGRCERHGKCKKTCIASRDPYCGWIKEGGACSHLSPNSRLTFEQDIERGNTDGLGDCHNSFVALNGHSSSLLPSTTTSDSTAQEGYESRGGMLDWKHLLDSPDSTDPLGAVSSHNHQDKKGVIRESYLKGHDQLVPVT
notes: also called SEMA6A rECD; recombinant SEMA6A ectodomain
B1 was tested, and the “stoichiometry N” value was 2.
